{"source": "paper PMC4877382", "key": {"H-NS (Escherichia coli)": {"system": "H-NS (Escherichia coli)", "assay": "EMSA", "details": "EMSA: 10 mM Tris-HCl pH 8, 10 mM MgCl2, 100 mM NaCl, 10 mM KCl, 1 mM spermidine, 0.5 mM DTT, 5% glycerol, 0.08 mg/ml BSA, 50 ng poly dI-dC, 25 C, 15 min …"}, "FIS (Escherichia coli)": {"system": "FIS (Escherichia coli)", "assay": "EMSA", "details": "EMSA: 10 mM Tris-HCl pH 8, 10 mM MgCl2, 100 mM NaCl, 10 mM KCl, 1 mM spermidine, 0.5 mM DTT, 5% glycerol, 0.08 mg/ml BSA, 50 ng poly dI-dC, 25 C, 15 min …"}}, "data": [{"substance": "cspA promoter 310 bp fragment", "values": [{"measurement": "binding signal", "setting": "H-NS (Escherichia coli)", "result": 520, "unit": "nM"}, {"measurement": "binding signal", "setting": "FIS (Escherichia coli)", "result": 7, "unit": "nM"}]}]}
